Reference: US20230250154

What was measured:
[1] = test system: T1, Tagged wild-type human A2M
T1 sequence: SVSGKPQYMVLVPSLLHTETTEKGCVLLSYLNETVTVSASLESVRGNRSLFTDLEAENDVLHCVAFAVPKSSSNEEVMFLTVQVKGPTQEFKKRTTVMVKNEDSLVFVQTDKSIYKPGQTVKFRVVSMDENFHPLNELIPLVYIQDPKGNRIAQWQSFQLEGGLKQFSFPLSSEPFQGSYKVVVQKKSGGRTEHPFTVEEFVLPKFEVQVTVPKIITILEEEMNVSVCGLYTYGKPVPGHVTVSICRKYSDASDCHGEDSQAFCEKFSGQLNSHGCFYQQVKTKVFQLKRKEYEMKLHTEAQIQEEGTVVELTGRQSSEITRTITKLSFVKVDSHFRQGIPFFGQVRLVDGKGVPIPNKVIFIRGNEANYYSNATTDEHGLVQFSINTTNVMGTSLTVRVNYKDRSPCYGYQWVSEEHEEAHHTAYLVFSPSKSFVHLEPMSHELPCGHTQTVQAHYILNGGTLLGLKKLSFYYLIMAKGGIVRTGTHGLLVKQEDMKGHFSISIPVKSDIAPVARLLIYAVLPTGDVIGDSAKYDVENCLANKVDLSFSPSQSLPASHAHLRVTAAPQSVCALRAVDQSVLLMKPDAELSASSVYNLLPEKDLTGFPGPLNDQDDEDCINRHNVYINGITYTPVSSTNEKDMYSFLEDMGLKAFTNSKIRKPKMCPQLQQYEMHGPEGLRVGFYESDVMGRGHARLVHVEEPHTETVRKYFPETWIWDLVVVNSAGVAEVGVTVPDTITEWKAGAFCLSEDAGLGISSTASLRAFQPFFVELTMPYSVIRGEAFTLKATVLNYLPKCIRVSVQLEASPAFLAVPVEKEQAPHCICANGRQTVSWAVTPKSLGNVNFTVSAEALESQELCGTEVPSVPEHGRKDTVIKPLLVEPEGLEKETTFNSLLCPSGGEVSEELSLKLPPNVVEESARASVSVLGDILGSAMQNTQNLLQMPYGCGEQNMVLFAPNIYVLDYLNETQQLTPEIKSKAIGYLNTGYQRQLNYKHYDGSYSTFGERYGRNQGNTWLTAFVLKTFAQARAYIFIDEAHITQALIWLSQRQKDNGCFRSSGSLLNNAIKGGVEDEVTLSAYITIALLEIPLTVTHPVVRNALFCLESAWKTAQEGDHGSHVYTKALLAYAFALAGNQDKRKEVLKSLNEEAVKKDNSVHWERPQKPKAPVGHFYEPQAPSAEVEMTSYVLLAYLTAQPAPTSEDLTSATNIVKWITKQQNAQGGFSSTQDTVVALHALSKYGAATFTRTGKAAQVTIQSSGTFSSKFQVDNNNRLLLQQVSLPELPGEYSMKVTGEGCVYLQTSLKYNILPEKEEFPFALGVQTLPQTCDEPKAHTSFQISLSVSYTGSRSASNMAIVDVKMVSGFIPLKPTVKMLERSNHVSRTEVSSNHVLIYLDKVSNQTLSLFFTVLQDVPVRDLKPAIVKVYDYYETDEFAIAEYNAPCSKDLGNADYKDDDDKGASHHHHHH

[2] = test system: the four selected A2M variants

Substance: chymotrypsin
- slope of FTC-casein digestion (fluorescent proteolysis assay) [1]: the variants are all capable of inhibiting various proteases, including trypsin and chymotrypsin approximately equally, to the wild-type A2M
- slope of FTC-casein digestion (fluorescent proteolysis assay) [2]: the variants are all capable of inhibiting various proteases, including trypsin and chymotrypsin approximately equally, to the wild-type A2M
